Patent US20090297535A1 (Ablynx, published 2009)

The binders below were run against T1, recombinant human IL6 (human, UniProt P05231 30-212) (assay: SPR, Biacore 3000; IL6 amine-coupled on CM5 chip, periplasmic extract injected).
T1 construct: Amine-coupled to a CM5 chip in the Biacore assay; used biotinylated in the Alphascreen assays; also called interleukin-6; biotinylated human IL6
Description: Off-rate analysis of Nanobodies binding to IL6 was done by surface plasmon resonance on a Biacore 3000 instrument. Recombinant human IL6 was covalently bound to a CM5 sensor chip via amine coupling at a density of ˜500 RU. Remaining reactive groups were inactivated. Periplasmic extracts prepared from E. coli cells expressing anti-IL6 Nanobodies were diluted 10 or 15-fold and injected for 4 min to allow for binding to IL6 immobilized on the chip. Buffer without Nanobody was sent over the chip for 30 min to allow for spontaneous dissociation of bound Nanobody. The dissociation phase was used to calculate the koff values for each individual Nanobody (table B-1).

| koff | Binder |
| --- | --- |
| 0.00222 s⁻¹ | PMP21E12 (VHH, Monovalent Nanobody) VHH: AVQLVESGGGLVQPGGSLRLSCAASGSITSINPMGWYRQAPGKQRELVARIHGSITNYADSVKGRFTISRDIAKNTVYLQMNSLKPEDTAVYYCNARRWGYDYWGQGAQVTVSS |
| 0.000897 s⁻¹ | PMP21C12 (VHH, Monovalent Nanobody) VHH: AVQLVESGGGLVQPGGSLRLSCAASGSITGINPMGWYRQAPGKQRELVARIHGSITNYADSVKGRFTISRDIAKNTAYLQMNSLKPEDTAVYYCNARRWGYDYWGQGAQVTVSS |
| 0.000199 s⁻¹ | PMP6B7 (VHH, Monovalent Nanobody) VHH: QVQLVESGGGLVQAGGSLRLSCAASGGTFSAFPMGWFRQAPGKERKFVAGISQSGGSTHYSDSVKGRFTISRENAKNTVYLQMNSLKPEDTAVYYCAARGRTLALRNYAYTTEVGYDDWGQGTQVTVSS |
| 0.000531 s⁻¹ | PMP14E9 (VHH, Monovalent Nanobody) VHH: AVQLVESGGGLVQAGGSLRLSCAASGGTFSAFPMGWFRQAPGKEREFVAGISQSGGSTHYSDSVKGRFTISKENAKSTVYLQMNSLKPEDTAVYYCAARGRTLALRNYAYTTEVGYDDWGQGTQVTVSS |
| 0.000631 s⁻¹ | PMP6E9 (VHH, Monovalent Nanobody) VHH: EVQLVESGGGLVQAGGSLRLSCAASGRTFSSYPMGWFRQAPGKERKFVAGISQSSSSTAYSDSVKGRFTISRENAKNTVYLQMNSLKPEDTAVYYCAARGRTLALRDYAYTTEVGYDDWGQGTQVTVSS |
| 0.000229 s⁻¹ | PMP14G11 (VHH, Monovalent Nanobody) VHH: QVQLVESGGGLVQAGGSLRLSCAASGGTFSSFPMGWFRQAPGKGREFVAGISQSGGSTHYSDSVKGRFTISRENAKNTVYLQMNSLKPEDTAVYYCAARGRTLALRNYAYTTEVGYDDWGQGTQVTVSS |
| 0.000211 s⁻¹ | PMP12C5 (VHH, Monovalent Nanobody) VHH: DVQLVESGGGLVQAGGSLRLSCAASGGTFTSYPMGWFRQAPGKERKFVAGISQSGGSTAYSDSVKGRFTISRENAKTTVYLQMNSLKPEDTAVYYCAARGRTLFLRGYAYTTEVGYDDWGQGTQVTVSS |
| 0.000669 s⁻¹ | PMP17G7 (VHH, Monovalent Nanobody) VHH: QVKLEESGGGLVQAGGSLRLSCAASGGTFSSYPMGWFRQAPGKEREFVTGISQSGGSTAYSDSVKGRFTISRENAKNTVYLQMNSLKPEDTAVYYCAARGRTIALRNYAYTTEVGYDDWGQGTQVTVSS |
| 0.000131 s⁻¹ | PMP14A8 (VHH, Monovalent Nanobody) VHH: EVQLVESGGGLVQAGGSLRLSCAASGGTFSSFPMGWFRQAPGKERKFVAGISQSGGSTHYSDSVKGRFTISRENAKNTVYLQMNNLKPEDTAVYYCAARGRTLALRNYAYTTEVGYDDWGQGTQVTVSS |
| 0.00116 s⁻¹ | PMP17D7 (VHH, Monovalent Nanobody) VHH: AVQLVDSGGGLVQAGGSLRLSCAASGGTFSAFPMGWFRQAPGKEREFVAGISQSGGSTHYSDSVKGRFTISKENAKNTVYLQMNSLKPEDTAVYYCAARGRTLALRNYAYTTEVGYDDWGQGTQVTVSS |
| 0.000243 s⁻¹ | PMP12H3 (VHH, Monovalent Nanobody) VHH: AVQLVDSGGGLVQAGGSLRLSCAASGGTFTSYPMGWFRQAPGKERKFVAGISQSGGSTAYSDSVKGRFTISRENAKTTVYLQMNSLKPEDTAVYYCAARGRTLFLRDYAYTTEVGYDDWGQGTQVTVSS |
| 0.00015 s⁻¹ | PMP17B5 (VHH, Monovalent Nanobody) VHH: QVQLVESGGGLVQAGGSLRLSCAASGGTFSAFPMGWFRQAPGKERKFVAGISQSGGSTHYSDSVKGRFTISRENAKNTIYLQMNSLKPEDTAVYYCAARGRTLALRNYAYTTEVGYDDWGQGTQVTVSS |
| 0.00079 s⁻¹ | PMP14G1 (VHH, Monovalent Nanobody) VHH: QVKLEESGGGLVQAGGSLRLSCAASGGTFSAFPMGWFRQAPGKEREFVAGISQSGGSTHYSDSVKGRFTISKENAKNTVYLQMNSLKPEDTAVYYCAARGGTLALRNYAYTTEVGYDDWGQGTQVTVSS |
| 0.00057 s⁻¹ | PMP14E1 (VHH, Monovalent Nanobody) VHH: QVQLVESGGGLVQAGGSLRLSCAASGRTFSSYPMGWFRQAPGKERKFVAGISQSGGSTAYSDSVKGRFTISRENAKSTVYLQMNSLKPEDTAVYYCAARDKTLALRDYAYTTDVGYDDWGQGTQVTVSS |
| 0.00019 s⁻¹ | PMP9F9 (VHH, Monovalent Nanobody) VHH: AVQLVESGGGLVQAGGSLRLSCAASGGTFSSFPMGWFRQAPGEKREFVAGISQSGGSTHYSDSVKGRFTISRENARNTVYLQMNSLKPEDTAVYYCAARGRTLALRNYAYTTEVGYDDWGQGTQVTVSS |
| 0.000312 s⁻¹ | PMP14G4 (VHH, Monovalent Nanobody) VHH: AVQLVDSGGGLVQAGGSLRLSCAASGRTFSSYPMGWFRQGPGKERKFVAGISQSGVGTAYSDSVKGRFTISRENAKNTVYLQMNSLKPEDTAVYYCAARDKTLALRDYAYTTDVGYDDWGQGTQVTVSS |

| koff | Binder |
| --- | --- |
| 0.00309 s⁻¹ | PMP7H3 (VHH, Monovalent Nanobody) VHH: DVQLVESGGGLVQPGGSLRLSCAASGFTLDYYGVGWFRQAPGKEREGVSCISSSDGDTYYADSVKGRFTISRDNAKNTVYLQMNSLKPEDTAVYYCATDLSDYGVCSRWPSPYDYWGQGTQVTVSS |
| 0.00605 s⁻¹ | PMP9A9 (VHH, Monovalent Nanobody) VHH: QVQLVESGGGLVQPGGSLRLSCAASGFSLDYYGVGWFRQAPGKEREGVSCTSSSDGDTYYADSVKGRFTISRDNAKNTVYLQMNSLKPEDTAVYYCATDLSDYGVCSRWPSPYDYWGQGTQVTVSS |
| 0.00519 s⁻¹ | PMP22E3 (VHH, Monovalent Nanobody) VHH: QVQLVESGGGLVQPGGSLRLSCAASGFTLDDSAIGWFRQAPGKEREGVSCISSSDGDTYYDDSVKGRFTISRDNVKNMVYLQMNSLKPEDTAVYFCAIDLSDYGVCSKWPSPYDYWGQGTQVTVSS |
| 0.00116 s⁻¹ | PMP21C2 (VHH, Monovalent Nanobody) VHH: QVQLVESGGGLVQPGGSLRLSCAASEYITSINPMAWYRQAPGKQRDLVARIFGGGSTNYADSVKGRFTISRDIAKNTVSLQMNSLKPEDTAVYYCNARRWGYDYWGQGTQVTVSS |
| 0.00082 s⁻¹ | NC6 (VHH, Monovalent Nanobody) VHH: EVQLVESGGGLVQAGGSLRLSCAASGPTFSSYAMGWFRQAPGKDREFVAAISSNGGSTRYADSVKGRFTISRDSAKNTAYLQMNSLKLEDTAVYYCAADETTGWVQLADFRSWGQGTQVTVSS |
| 0.000433 s⁻¹ | PMP6G10 (VHH, Monovalent Nanobody) VHH: QVQLVESGGGLAQAGGSLRLSCVVSGRTFSPYTIGWFSQRPGKEREWVATIIGSDRSTDLDGDTYYADSVRGRFTISRNDAKNTVSLQMNSLKPEDSAVYYCALTAKGYVFTDNEYDYWGQGTQVTVSS |
| 0.000511 s⁻¹ | PMP6D5 (VHH) VHH: QVQLVESGGGLVQAGGSLRLSCAASGRTFSPYTMGWFRQPPGKVREFVGRINWSGIRNYADSVKGRFTISRDNNNNTVYLQMNRLKPEDTAVYYCAAASQSGSGYDSWGQGTQVTVSS |
| 0.000318 s⁻¹ | PMP20G9 (VHH, Monovalent Nanobody) VHH: QVQLVESGGGLVQAGGSLRLSCAASGRTFSPYTVGWFRQPPGKVREFVGRINWSGIRNYADSVKGRFTISRDNNNNTVYLQMNRLKPEDTAVYYCAAASQSGSGYDSWGQGTQVTVSS |
| 0.000195 s⁻¹ | PMP20F4 (VHH, Monovalent Nanobody) VHH: QVQLVESGGGLVQAGGSLRLSCAASGRTFSPYTMGWFRQPPGKVREFVGRINWSGIRNYADSVKGRFTISRDNNNNTVYLQMNRLKPEDTAVYYCAAASRSGSGYDSWGQGTQVTVSS |
| 0.000526 s⁻¹ | PMP21A7 (VHH, Monovalent Nanobody) VHH: AVQLVESGGGLVQAGSSLRLSCAASGRTFSPYTMGWFRQPPGKVREFVGRINWSGITNYADSVKGRFTISRDNNKNTVYLQMNRLKPEDTAVYYCAAASRSGSGYDSWGQGTQVTVSS |
| 0.000396 s⁻¹ | PMP13A1 (VHH, Monovalent Nanobody) VHH: AVQLVDSGGGLVQAGGSLRLSCAASGRTFSPYTMGWFRQPPGKVREFVGRINWSGIRNYADSVKGRFTISRDNNNNTVYLQMNRLKPEDTAVYYCAAASQSGSGYDSWGQGTQVTVSS |
| 0.000251 s⁻¹ | PMP13D8 (VHH, Monovalent Nanobody) VHH: QVKLEESGGGLVQAGSSLRLSCAASGRTSSPYTMGWFRQPPGKVREFVGRINWSGITNYADSVKGRFTISRDNNKNTVYLQMNRLKPEDTAVYYCASASQVGSGYDSWGQGTQVTVSS |
| 0.00189 s⁻¹ | PMP13H6 (VHH, Monovalent Nanobody) VHH: QVKLEESGGGLVQAGGSLRLSCASSGRTFSSYVMGWFRQTPGKEREFVSTINWSGSNKYYADSVKGRFTISRDNAKNTVYLQMNSLKPEDTAVYYCAASAGGFLVPRVGQGYDYWGQGTQVTVSS |
| 0.00056 s⁻¹ | NC3 (VHH, Monovalent Nanobody) VHH: EVQLVESGGGLVQPGGSLRLSCAASGNIAAINVMNWYRQAPGTQREFVAAITSGGRKNYADSVKGRFTISRDNAKNTVHLQMNSLKPEDTAVYYCNADAPLASDDDVAPADYWGQGTQVTVSS |
| 0.000243 s⁻¹ | PMP20D2 (VHH, Monovalent Nanobody) VHH: AVQLVESGGGLVQPGGSLRLSCAASGSISRFNIMGWYRQAPGKQRELVADITNRGTTNYADSVKGRFTISRDNTKNTVYLQMNSLKPDDTAVYYCHTYYPTTGFDDWGQGTQVTVSS |
| 0.0016 s⁻¹ | PMP23H2 (VHH, Monovalent Nanobody) VHH: AVQLVDSGGGLVQPGGSLRLSCAASGSIFSRLAMDWYRQAPGKQRELVASIAVSGTTMLDDSVKGRFTISRDNAENTVYLQMNSLKPEDTAVYYCMAFDGYTGSDYWGRGTQVTVSS |
